{"source": "paper PMC5481773", "about": "(2017)", "binders": {"B1": {"name": "p21 PIP box peptide used for ITC (peptide)", "chain": "RKRRQTSMTDFYHSK", "modifications": "Exact limits are in the supplement. Window is the 15-mer homologous to ZRANB3 515-529, aligned on Q144. Check residues are not named in the paper. Termini chemistry not stated."}, "B2": {"name": "FEN1 PIP box peptide used for ITC (peptide)", "chain": "QGSTQGRLDDFFKVT", "modifications": "Exact limits are in the supplement. Window is the 15-mer homologous to ZRANB3 515-529, aligned on Q337. Termini chemistry not stated."}, "B3": {"name": "Polι PIP box peptide used for ITC (peptide)", "chain": "NTAKKGLIDYYLMPS", "modifications": "Exact limits are in the supplement. Window is the 15-mer homologous to ZRANB3 515-529 (equal lengths stated); the PIP box KGLIDYYL is 421-428 in 715-aa numbering, +25 in the 740-aa entry. Check residues are not named in the paper. Termini chemistry not stated."}}, "data": [{"biological_target": "His-tagged Proliferating Cell Nuclear Antigen (PCNA) (human, UniProt P12004 1-261)", "sequence (P12004 whole entry)": "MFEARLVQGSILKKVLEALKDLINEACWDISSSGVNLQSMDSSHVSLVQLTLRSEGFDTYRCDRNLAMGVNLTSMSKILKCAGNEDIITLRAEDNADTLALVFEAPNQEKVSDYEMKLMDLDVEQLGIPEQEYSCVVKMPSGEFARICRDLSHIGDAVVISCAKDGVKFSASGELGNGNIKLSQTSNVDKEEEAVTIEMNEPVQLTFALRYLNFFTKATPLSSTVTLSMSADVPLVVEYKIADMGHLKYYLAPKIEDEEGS", "assay": "ITC", "units": {"Kd": "µM"}, "values": [{"binder": "B1", "Kd": 0.275}, {"binder": "B2", "Kd": 17.3}, {"binder": "B3", "Kd": 5.45}]}]}
